Assays:
mouse TRAP mRNA = assay: Quantitative RT-PCR of TRAP mRNA in RAW 264.7 cells; type: cell-based; settings: RANKL/LZ 200 ng/ml or TNFα 20 ng/ml, various times
mouse MMP-9 mRNA = assay: Quantitative RT-PCR of MMP-9 mRNA in RAW 264.7 cells; type: cell-based; settings: RANKL/LZ 200 ng/ml or TNFα 20 ng/ml, various times
Text: MMP-9 mRNA is elevated greater than 350-fold by RANK-L, but is not increased by TNFα. This specificity is helpful in screening for inhibitors of RANK signal transduction.

[1] = system: endogenous c-jun kinase (JNK); assay: JNK immune-complex kinase assay in transfected 3T3 cells; type: cell-based, murine; settings: 3T3 cells 24 hours after transfection, absence of RANK-L stimulation
Protocol: This example describes evaluating murine 3T3 cells transfected with plasmids containing DNA encoding human FEO RANK (SEQ ID NO:9), and murine 3T3 cells expressing recombinant DNA encoding human wild type RANK (SEQ ID NO:1) for their relative ability to activate endogenous c-jun kinase (JNK) in the absence of RANK-L stimulation. JNK is known to be activated as a consequence of RANK signal transduction.
For JNK assays, whole cell extracts were prepared from 3T3 cells 24 hours after transfection. Cells were lysed in a buffer containing 20 mM HEPES, pH 7.4, 2 mM EGTA, 50 mM β-glycerol phosphate, 1 mM DTT, 1 mM sodium orthovanadate, 1% Triton-X 100, 10% glycerol and the protease inhibitors leupeptin, pepstatin A, and PMSF. Clarified lysates were immunoprecipitated with 1 μg each anti-JNK (FL) and anti-JNK (C17) antibodies (both from Santa Cruz Biotechnology, Inc. Santa Cruz, Calif.). […] JNK activity was determined by an immune-complex assay using 1 μg of a fusion protein of glutathione-S-transferase and amino acids 1-169 of […] (GST-cJun (1-169)) (UBI, Lake Placid, N.Y.) and 5 μCi of [^32P]-ATP as substrate in 40 μl of assay buffer at 30° C. for 20 min. […]

[2] = system: MMP-9 promoter (nucleotides 1769-3591 of SEQ ID NO:11); assay: pSIR/MMP-9 hIL-2 αR reporter in RAW264.7 cells, flow cytometry; type: cell-based, murine; settings: RAW264.7 cells stably expressing pSIR/MMP-9
Text: The location of the RANK-responsive portion of MMP-9 promoter was more narrowly identified by testing further truncations of the promoter. A PVUII/BGL2 restriction fragment including the 5′-proximal 1822 bp of the MMP-9 promoter was fused with a BLGII/EcoRI restriction fragment encoding the human IL-2 receptor a in the multicloning site of the pSIR retroviral vector (Clontech). The resulting plasmid, which was named pSIR/MMP-9, is responsive to RANK and is useful in assays to identify RANK antagonists. The region of the MMP-9 promoter present in pSIR/MMP-9 corresponds to nucleotides 1769-3591 of SEQ ID NO:11.
pSIR/MMP-9 was introduced into RANK responsive cells as follows. Retroviral particles were prepared after transfection of 293/E packaging cells with pSIR/MMP-9. RAW264.7 cells were infected with these particles and neomycin resistant colonies stably expressing the reporter were isolated. Treatment of these cells with RANKL led to an increase in the cell surface expression of the hIL-2 αR, as detected by flow cytometry using the mouse mAb (clone 2A3) anti-human IL-2 αR as a reagent for detecting the IL-2R. […]
Surface expression of human IL-2α receptor is detected by flow cytometry in the following manner. […] After washing the cells, the fluorescence intensity is measured using a flow cytometer, such as a FACS scan (Becton Dickinson).

RANK = assay: radioimmune assay of reporter surface expression in 293/EBNA cells; type: cell-based; settings: 48 hours after transfection
Protocol: Additionally, surface expression of human IL-2α receptor can be analyzed using a radioactive antibody against IL-2α receptor. For the mIL-4R-specific radioimmune assay, mouse anti-human IL-2α monoclonal antibody reactive with mIL-4R was labeled with ^125I via a Chloramine T conjugation method; the resulting specific activity is typically […]. After 48 hours, cells transfected with pGL2-MMP-9/human IL-2 receptor were washed once with media (DMEM, 12 5% FBS). Non-specific binding sites were blocked by the addition of pre-warmed binding media containing 5% non-fat dry milk and incubation at 37° C./5% CO2 in a tissue culture incubator for one hour. The blocking media was decanted and binding buffer containing ^125I anti-mIL-4R (clone M1; rat IgG1) was added to the cells and incubated with rocking at room temperature for 1 hour. After incubation of the cells with the radio-labeled antibody, cells were washed extensively with binding buffer (2 X) and twice with phosphate-buffered saline (PBS). Cells were lysed in 1 ml of 0.5M NaOH, and total radioactivity measured with a gamma counter.

In the case of TNFα [reference compound], the “TRAP mRNA elevation” value (mouse TRAP mRNA) is reported as “about 2.3 fold” and the “MMP-9 mRNA elevation” value (mouse MMP-9 mRNA) is reported as “not increased”.

B1: FEO RANK: mutated form of RANK isolated from patients with familial expansile osteolysis (SEQ ID NOS:9 and 10), expressed from transfected DNA (protein, listed as Homo sapiens)
chain: MAPRARRRRPLFALLLLCALLLLCALLARLQVALQIAPPCTSEKHYEHLGRCCNKCEPGKYMSSKCTTTSDSVCLPCGPDEYLDSWNEEDKCLLHKVCDTGKALVAVVAGNSTTPRRCACTAGYHWSQDCECCRRNTECAPGLGAQHPLQLNKDTVCKPCLAGYFSDAFSSTDKCRPWTNCTFLGKRVEHHGTEKSDAVCSSSLPARKPPNEPHVYLPGLIILLLFASVALVAAIIFGVCYRKKGKALTANLWHWINEACGRLSGDKESSGDSCVSTHTANFGQQGACEGVLLLTLEEKTFPEDMCYPDQGGVCQGTCVGGGPYAQGEDARMLSLVSKTEIEEDSFRQMPTEDEYMDRPSQPTDQLLFLTEPGSKSTPPFSEPLEVGENDSLSQCFTGTQSTVGSESCNCTEPLCRTDWTPMSSENYLQKEVDSGHCPHWAASPSPNWADVCTGCRNPPGEDCEPLVGSPKRGPLPQCAYGMGLPPEEEASRTEARDQPEDGADGRLPSSARAGAGSGSSPGGQSPASGNVTGNSNSTFISSGQVMNFKGDIIVVYVSQTSQEGAAAAAEPMGRPVQEETLARRDSFAGNGPRFPDPCGGPEGLREPEKASRPVQEQGGAKA
B1 was tested, and the “activation of JNK” value [1] was “activated”.

B2: RANKL: RANK ligand used to treat RAW264.7 reporter cells; form not specified (protein)
chain: MRRASRDYTKYLRGSEEMGGGPGAPHEGPLHAPPPPAPHQPPAASRSMFVALLGLGLGQVVCSVALFFYFRAQMDPNRISEDGTHCIYRILRLHENADFQDTTLESQDTKLIPDSCRRIKQAFQGAVQKELQHIVGSQHIRAEKAMVDGSWLDLAKRSKLEAQPFAHLTINATDIPSGSHKVSLSSWYHDRGWAKISNMTFSNGKLIVNQDGFYYLYANICFRHHETSGDLATEYLQLMVYVTKTSIKIPSSHTLMKGGSTKYWSGNSEFHFYSINVGGFFKLRSGEEISIEVSNPSLLDPDQDATYFGAFKVRDID
With B2 the “cell surface expression of the hIL-2 αR” value [2] was “increase” and the “time to maximal level of hIL-2 α receptor expression” value [2] was no more than 48 h.

B3: RANK-L: RANK ligand, Type 2 transmembrane protein that binds to and activates RANK; human full-length SEQ ID NO:6 (protein, listed as Homo sapiens)
chain: MRRASRDYTKYLRGSEEMGGGPGAPHEGPLHAPPPPAPHQPPAASRSMFVALLGLGLGQVVCSVALFFYFRAQMDPNRISEDGTHCIYRILRLHENADFQDTTLESQDTKLIPDSCRRIKQAFQGAVQKELQHIVGSQHIRAEKAMVDGSWLDLAKRSKLEAQPFAHLTINATDIPSGSHKVSLSSWYHDRGWAKISNMTFSNGKLIVNQDGFYYLYANICFRHHETSGDLATEYLQLMVYVTKTSIKIPSSHTLMKGGSTKYWSGNSEFHFYSINVGGFFKLRSGEEISIEVSNPSLLDPDQDATYFGAFKVRDID
B3 was tested, and the “transcriptional activation, reporter detected on the cell surface” value (RANK) was “resulted in transcription of muIL-4R”.

Reference: patent US7572594B2, “Screening assays for agonists or antagonists or receptor activator of NF-κB” (Immunex Corporation, priority 2000, dated 2009)
